Measured values: patent US20260049134A1 (UNIVERSITY OF FLORIDA RESEARCH FOUNDATION, published 2026)

Molecular target: T1, GARS-His (Sino Biological) (human, UniProt P41250 37-739, limits assumed)
T1 construct: Bought; also called GARS1; glycyl-tRNA synthetase; not shown: His tag of the bought protein
T1 sequence: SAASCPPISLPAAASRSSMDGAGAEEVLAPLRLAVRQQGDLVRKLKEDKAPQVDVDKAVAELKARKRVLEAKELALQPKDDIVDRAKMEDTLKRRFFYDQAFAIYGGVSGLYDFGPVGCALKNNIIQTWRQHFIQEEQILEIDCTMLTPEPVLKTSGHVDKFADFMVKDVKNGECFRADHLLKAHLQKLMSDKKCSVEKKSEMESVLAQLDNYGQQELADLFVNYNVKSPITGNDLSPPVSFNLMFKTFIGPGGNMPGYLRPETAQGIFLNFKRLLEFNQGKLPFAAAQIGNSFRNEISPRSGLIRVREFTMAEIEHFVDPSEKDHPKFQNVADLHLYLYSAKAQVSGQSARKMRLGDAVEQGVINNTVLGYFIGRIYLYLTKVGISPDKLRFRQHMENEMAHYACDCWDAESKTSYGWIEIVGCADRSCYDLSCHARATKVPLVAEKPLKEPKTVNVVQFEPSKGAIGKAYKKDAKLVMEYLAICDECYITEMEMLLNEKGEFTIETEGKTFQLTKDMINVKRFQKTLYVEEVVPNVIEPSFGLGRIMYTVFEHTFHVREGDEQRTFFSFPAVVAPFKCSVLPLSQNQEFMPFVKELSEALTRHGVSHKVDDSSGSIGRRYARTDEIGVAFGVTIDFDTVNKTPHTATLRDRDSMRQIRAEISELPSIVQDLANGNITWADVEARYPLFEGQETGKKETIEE
Test: ELISA, coated recombinant GARS-His, anti-human Fab-peroxidase detection
Procedure: ELISA ELISA was conducted as described previously. Briefly, 50-150 ng of antigen was coated overnight in half-area 96-well plates at 4° C., blocked with 3% BSA at 37° C. for 1 h, and 150 ng of chimeric rabbit/human IgG1 was added, incubating for 2 h at 37° C. […] After incubating at 37° C. for 15 min-1 h (depending on intensity of controls), data were acquired using a SpectraMax M5 plate reader (Molecular Devices).

B1: HW-8 chimeric rabbit-human IgG1 LA/LA/PG (antibody, V domains shown)
VH: QSLEESGGRLVTPGTPLTLTCTVSGFSLSSYAMSWVRQAPGKGLEWIGAISTGGSTTYASWAKGRFTISKTSSTTVDLKMTSLTTEDTATYFCVRHFRLWGPGTLVTISS
VL: QVLTQTPSSVSAAVGGTVTIKCQASQSIGSALAWFQQKPGQRPKLLIYRASNLASGVPSRFKGSGSGTEFALTISGVQREDAATYYCLGGAAAVWAFGAGTNVEIKR
notes: Fc-silenced (L234A/L235A/P329G) IgG1, kappa; Alexa Fluor 647-labeled in single-step flow cytometry; Cluster C-45
binding result: no binding (tested: 150 ng of IgG1 per well)
